Experimental data as given in US20200270347A1 (Hoffmann-La Roche, published 2020).

How the values were obtained:
[1] = molecular target: T1, heterodimer of human CD3 delta and CD3 epsilon ectodomains fused to a human Fc domain with knob-into-hole … (human); assay: SPR, relative active concentration after stress
T1 construct: Each entry is the whole fusion chain (ectodomain, stalk, Fc, Avi-tag); also called recombinant CD3; recombinant human CD3

[2] = molecular target: T2, human CD3 expressed on Jurkat NFAT reporter cells (human, UniProt P07766 23-207); assay: flow cytometry on Jurkat NFAT cells, PE-labelled anti-human Fc secondary antibody
T2 construct: CD3 complex on cells; also called CD3 on Jurkat cells; CD3 expressing cells
T2 sequence (P07766 23-207 limits assumed): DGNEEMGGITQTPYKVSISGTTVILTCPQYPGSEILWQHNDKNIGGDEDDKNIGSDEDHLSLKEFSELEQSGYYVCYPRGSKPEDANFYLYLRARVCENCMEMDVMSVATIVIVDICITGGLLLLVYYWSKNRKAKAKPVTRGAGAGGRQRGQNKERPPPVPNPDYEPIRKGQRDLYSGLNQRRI

[3] = molecular target: TYRP1 on the melanoma cell line M150543 (human, UniProt P17643 25-537); assay: cell-based or functional assay
[4] = molecular target: T3, recombinant TYRP1 (Sino Biologicals) (human, UniProt P17643 25-477, limits assumed); assay: SPR, relative active concentration as for CD3, with recombinant TYRP1 (Sino Biologicals) as antigen; sample: 14d pH 7.4, 37°C
T3 construct: Bought protein; also called human TYRP1

[5] = molecular target: T1, heterodimer of human CD3 delta and CD3 …; assay: SPR, TCB captured with anti-PGLALA antibody, CD3 antigen as analyte, 1:1 Langmuir
[6] = molecular target: T4, heterodimer of cynomolgus CD3 delta and CD3 epsilon ectodomains fused to a human Fc domain with … (cynomolgus); assay: as above
T4 construct: Each entry is the whole fusion chain; also called Cynomolgus CD3 epsilon stalk-Fc(knob)-Avi / Cynomolgus CD3 delta stalk-Fc(hole)-Avi

[7] = molecular target: T3, recombinant TYRP1 (Sino Biologicals); assay: SPR, relative active concentration as for CD3, with recombinant TYRP1 (Sino Biologicals) as antigen; sample: unstressed
[8] = molecular target: T3, recombinant TYRP1 (Sino Biologicals); assay: SPR, relative active concentration as for CD3, with recombinant TYRP1 (Sino Biologicals) as antigen; sample: 14d pH 6.0, 40°C
[9] = molecular target: T5, wild-type EGFR on MKN-45 cells (human, UniProt P00533 25-1210); assay: flow cytometry on MKN-45 cells (wild-type EGFR), IgG PGLALA
T5 construct: MKN-45 is the wild-type EGFR line used to exclude crossreactivity; also called EGFRwt

[10] = molecular target: T6, EGFRvIII-ECD avi his (human); assay: SPR, ECD antigen captured with anti-His, single injection of antibody at 500 nM
T6 construct: Extracellular domain of human EGFRvIII fused to an Avi-tag and a His-tag at the C-terminus; the entry is the whole construct; also called recombinant EGFRvIII; EGFRvIII antigen

[11] = molecular target: EGFRwt ECD antigen (His-tagged, captured with anti-His) (human, UniProt P00533 25-645); assay: as above
[12] = molecular target: T6, EGFRvIII-ECD avi his; assay: SPR, PGLALA IgG captured with anti-PGLALA antibody, EGFRvIII-ECD avi his as analyte, 1:1 Langmuir, 25° C.
[13] = molecular target: T7, EGFRvIII expressed on the cell surface (CHO-EGFRvIII, DK-MG, U87MG-EGFRvIII cells) (human, UniProt P00533 298-1210); assay: flow cytometry on U87MG-EGFRvIII cells, IgG PGLALA
T7 construct: The cell line of each result is named under assay; Species is stated for the U87 transfectant (human EGFRvIII protein) and the entry; also called EGFRvIII positive cells

[14] = molecular target: Mouse TYRP1 ECD-Fc(knob)-Avi / Fc(hole) (mouse, UniProt P01857 104-328 = IgG part); assay: SPR, TYRP1 ECD-Fc captured with anti-PGLALA antibody, Fab as analyte, 1:1 Langmuir; mouse TYRP1
[15] = molecular target: Cynomolgus TYRP1 ECD-Fc(knob)-Avi / Fc(hole) (cynomolgus, UniProt P01857 104-328 = IgG part); assay: SPR, TYRP1 ECD-Fc captured with anti-PGLALA antibody, Fab as analyte, 1:1 Langmuir; cynomolgus TYRP1
[16] = molecular target: T8, Human TYRP1 ECD-Fc(knob)-Avi / Fc(hole) (human, UniProt P01857 104-328 = IgG part); assay: SPR, TYRP1 ECD-Fc captured with anti-PGLALA antibody, Fab as analyte, 1:1 Langmuir; human TYRP1
T8 construct: Fc with knob-into-hole and PG LALA modifications, C-terminal Avi-tag; also called monomeric fusion of the human TYRP1 extracellular domain to a human Fc-domain

Binder | Tyrp1 Binding Activity (%) [4] [%] | Tyrp1 Binding Activity (%) [7] [%] | Tyrp1 Binding Activity (%) [8] [%] | response units [10] [RU] | response units [11] [RU] | Kd [12] [nM] | other results
CD3opt human IgG1 PGLALA (antibody, V domains shown, Human IgG1 format with P329G L234A L235A (PGLALA); also called CD3opt IgG PGLALA) VH: EVQLLESGGGLVQPGGSLRLSCAASGFQFSSYAMNWVRQAPGKGLEWVSRIRSKYNNYATYYADSVKGRFTISRDDSKNTLYLQMNSLRAEDTAVYYCVRHTTFPSSYVSYYGYWGQGTLVTVSS VL: QAVVTQEPSLTVSPGGTVTLTCGSSTGAVTTSNYANWVQEKPGQAFRGLIGGTNKRAPGTPARFSGSLLGGKAALTLSGAQPEDEAEYYCALWYSNLWVFGGGTKLTVLR | – | – | – | – | – | – | binding activity to CD3 after 2 weeks at pH 7.4, 37° C., relative to 2 weeks at pH 6, -80° C. [1]: > 90%; EC50 (read off the curve) [2]: ~0.5 nM
CD3orig human IgG1 PGLALA (antibody, V domains shown, Human IgG1 format with P329G L234A L235A (PGLALA) in the Fc by the text; also called CD3orig IgG PGLALA) VH: not shown VL: QAVVTQEPSLTVSPGGTVTLTCGSSTGAVTTSNYANWVQEKPGQAFRGLIGGTNKRAPGTPARFSGSLLGGKAALTLSGAQPEDEAEYYCALWYSNLWVFGGGTKLTVLR | – | – | – | – | – | – | EC50 (read off the curve) [2]: ~0.8 nM
TYRP1 TCB CD3opt (bispecific antibody, human IgG1, kappa, L234A L235A, two TYRP1 Fabs, one CD3opt crossover Fab) heavy 1: not shown heavy 2: QVQLVQSGAEVKKPGASVKVSCKASGFNIKDYFLHWVRQAPGQGLEWMGWINPDNGNTVYAQKFQGRVTMTADTSTSTVYMELSSLRSEDTAVYYCTRRDYTYEKAALDYWGQGTLVTVSSASTKGPSVFPLAPSSKSTSGGTAALGCLVEDYFPEPVTVSWNSGALTSGVHTFPAVLQSSGLYSLSSVVTVPSSSLGTQTYICNVNHKPSNTKVDEKVEPKSCDKTHTCPPCPAPEAAGGPSVFLFPPKPKDTLMISRTPEVTCVVVDVSHEDPEVKFNWYVDGVEVHNAKTKPREEQYNSTYRVVSVLTVLHQDWLNGKEYKCKVSNKALGAPIEKTISKAKGQPREPQVCTLPPSRDELTKNQVSLSCAVKGFYPSDIAVEWESNGQPENNYKTTPPVLDSDGSFFLVSKLTVDKSRWQQGNVFSCSVMHEALHNHYTQKSLSLSP light 1: DIQMTQSPSSLSASVGDRVTITCRASGNIYNYLAWYQQKPGKVPKLLIYDAKTLADGVPSRFSGSGSGTDFTLTISSLQPEDVATYYCQHFWSLPFTFGQGTKLEIKRTVAAPSVFIFPPSDRKLKSGTASVVCLLNNFYPREAKVQWKVDNALQSGNSQESVTEQDSKDSTYSLSSTLTLSKADYEKHKVYACEVTHQGLSSPVTKSFNRGEC light 2: EVQLLESGGGLVQPGGSLRLSCAASGFQFSSYAMNWVRQAPGKGLEWVSRIRSKYNNYATYYADSVKGRFTISRDDSKNTLYLQMNSLRAEDTAVYYCVRHTTFPSSYVSYYGYWGQGTLVTVSSASVAAPSVFIFPPSDEQLKSGTASVVCLLNNFYPREAKVQWKVDNALQSGNSQESVTEQDSKDSTYSLSSTLTLSKADYEKHKVYACEVTHQGLSSPVTKSFNRGEC | 101 | 100 | 101 | – | – | – | EC50 of tumor cell killing at 48 h (LDH release), PBMC donor 1 [3]: 0.31 nM; EC50 of tumor cell killing at 48 h (LDH release), PBMC donor 2 [3]: 0.03 nM; EC50 of tumor cell killing at 48 h (LDH release), PBMC donor 3 [3]: 0.08 nM; Kd [5]: 50 nM; Kd [6]: 20 nM; binding activity to CD3 after 2 weeks at pH 7.4, 37° C., relative to 2 weeks at pH 6, -80° C. [1]: > 90%
TYRP1 TCB CD3orig (bispecific antibody, human IgG1, kappa, L234A L235A, 2+1 IgG CrossFab, inverted, with charge modifications) heavy 1: not shown heavy 2: QVQLVQSGAEVKKPGASVKVSCKASGFNIKDYFLHWVRQAPGQGLEWMGWINPDNGNTVYAQKFQGRVTMTADTSTSTVYMELSSLRSEDTAVYYCTRRDYTYEKAALDYWGQGTLVTVSSASTKGPSVFPLAPSSKSTSGGTAALGCLVEDYFPEPVTVSWNSGALTSGVHTFPAVLQSSGLYSLSSVVTVPSSSLGTQTYICNVNHKPSNTKVDEKVEPKSCDKTHTCPPCPAPEAAGGPSVFLFPPKPKDTLMISRTPEVTCVVVDVSHEDPEVKFNWYVDGVEVHNAKTKPREEQYNSTYRVVSVLTVLHQDWLNGKEYKCKVSNKALGAPIEKTISKAKGQPREPQVCTLPPSRDELTKNQVSLSCAVKGFYPSDIAVEWESNGQPENNYKTTPPVLDSDGSFFLVSKLTVDKSRWQQGNVFSCSVMHEALHNHYTQKSLSLSP light 1: DIQMTQSPSSLSASVGDRVTITCRASGNIYNYLAWYQQKPGKVPKLLIYDAKTLADGVPSRFSGSGSGTDFTLTISSLQPEDVATYYCQHFWSLPFTFGQGTKLEIKRTVAAPSVFIFPPSDRKLKSGTASVVCLLNNFYPREAKVQWKVDNALQSGNSQESVTEQDSKDSTYSLSSTLTLSKADYEKHKVYACEVTHQGLSSPVTKSFNRGEC light 2: EVQLLESGGGLVQPGGSLRLSCAASGFTFSTYAMNWVRQAPGKGLEWVSRIRSKYNNYATYYADSVKGRFTISRDDSKNTLYLQMNSLRAEDTAVYYCVRHGNFGNSYVSWFAYWGQGTLVTVSSASVAAPSVFIFPPSDEQLKSGTASVVCLLNNFYPREAKVQWKVDNALQSGNSQESVTEQDSKDSTYSLSSTLTLSKADYEKHKVYACEVTHQGLSSPVTKSFNRGEC | 103 | 100 | 98 | – | – | – | EC50 of tumor cell killing at 48 h (LDH release), PBMC donor 1 [3]: 0.44 nM; EC50 of tumor cell killing at 48 h (LDH release), PBMC donor 2 [3]: 0.05 nM; EC50 of tumor cell killing at 48 h (LDH release), PBMC donor 3 [3]: 0.14 nM; Kd [5]: 50 nM
EGFRvIII antibody P063.056 IgG1 PGLALA (antibody, V domains shown, Anti-EGFRvIII PGLALA IgG (human IgG1)) VH: EVQLVQSGAEVKKPGESLKISCKGSGYSFDSYWIAWVRQMPGKGLEWMGVIHPYDSDTRYSPSFQGQVTISADKSISTAYLQWSSLKASDTAMYYCARVSRSSYAFDYWGQGTLVTVSS VL: not shown | – | – | – | > 50 | < 5 | 10 | binding result [9]: no binding (tested: about 140 nM)
EGFRvIII antibody P065.036 IgG1 PGLALA (antibody, V domains shown, Anti-EGFRvIII PGLALA IgG (human IgG1)) VH: EVQLVQSGAEVKKPGESLKISCKGSGYSFDSYWIAWVRQMPGKGLEWMGVIHPYDSDTRYSPSFQGQVTISADKSISTAYLQWSSLKASDTAMYYCARVSRSSYALDYWGQGTLVTVSS VL: not shown | – | – | – | > 50 | > 5 | 10 | –
EGFRvIII antibody P064.078 IgG1 PGLALA (antibody, V domains shown, Anti-EGFRvIII PGLALA IgG (human IgG1)) VH: EVQLVQSGAEVKKPGESLKISCKGSGYSFDSYWIAWVRQMPGKGLEWMGVIHPYDSDTRYSPSFQGQVTISADKSISTAYLQWSSLKASDTAMYYCARVSRLSYALDYWGQGTLVTVSS VL: not shown | – | – | – | > 50 | > 5 | 15 | EC50 (read off the curve) [13]: ~3 nM
TYRP1 IgG (antibody, V domains shown, IgG format; constant regions not specified) VH: QVQLVQSGAEVKKPGASVKVSCKASGFNIKDYFLHWVRQAPGQGLEWMGWINPDNGNTVYAQKFQGRVTMTADTSTSTVYMELSSLRSEDTAVYYCTRRDYTYEKAALDYWGQGTLVTVSS VL: DIQMTQSPSSLSASVGDRVTITCRASGNIYNYLAWYQQKPGKVPKLLIYDAKTLADGVPSRFSGSGSGTDFTLTISSLQPEDVATYYCQHFWSLPFTFGQGTKLEIK | 101 | 100 | 97 | – | – | – | –
TYRP1 Fab fragment (humanized TA99 TYRP1 binder) (Fab, V domains shown, Fab prepared by plasmin digestion of the corresponding antibody; also called TYRP1 Fab fragments) VH: QVQLVQSGAEVKKPGASVKVSCKASGFNIKDYFLHWVRQAPGQGLEWMGWINPDNGNTVYAQKFQGRVTMTADTSTSTVYMELSSLRSEDTAVYYCTRRDYTYEKAALDYWGQGTLVTVSS VL: DIQMTQSPSSLSASVGDRVTITCRASGNIYNYLAWYQQKPGKVPKLLIYDAKTLADGVPSRFSGSGSGTDFTLTISSLQPEDVATYYCQHFWSLPFTFGQGTKLEIK | – | – | – | – | – | – | Kd [14]: 0.53 nM; Kd [15]: 0.18 nM; Kd [16]: 0.13 nM
